{"source": "patent US20110311550A1", "assay_in_all_cases": "ELISA, lectin-captured E1E2 lysate, Ab 1 ug/ml", "key": {"[1]": {"target": "E1E2 complex (H77) with E1 mutation D279A (HCV genotype 1a, isolate H77) (UniProt P27958)"}, "[2]": {"target": "E1E2 complex (H77) with E1 mutation F293A (HCV genotype 1a, isolate H77) (UniProt P27958)"}, "[3]": {"target": "E1E2 complex (H77) with E1 mutation G225A (HCV genotype 1a, isolate H77) (UniProt P27958)"}, "[4]": {"target": "E1E2 complex (H77) with E1 mutation G311A (HCV genotype 1a, isolate H77) (UniProt P27958)"}, "[5]": {"target": "E1E2 complex (H77) with E1 mutation G350A (HCV genotype 1a, isolate H77) (UniProt P27958)"}, "[6]": {"target": "E1E2 complex (H77) with E1 mutation H222A (HCV genotype 1a, isolate H77) (UniProt P27958)"}, "[7]": {"target": "E1E2 complex (H77) with E1 mutation H316A (HCV genotype 1a, isolate H77) (UniProt P27958)"}, "[8]": {"target": "E1E2 complex (H77) with E1 mutation L258A (HCV genotype 1a, isolate H77) (UniProt P27958)"}, "[9]": {"target": "E1E2 complex (H77) with E1 mutation N196A/N234A (HCV genotype 1a, isolate H77) (UniProt P27958)"}, "[10]": {"target": "E1E2 complex (H77) with E1 mutation N196A/N325A (HCV genotype 1a, isolate H77) (UniProt P27958)"}, "[11]": {"target": "E1E2 complex (H77) with E1 mutation N305A/N234A (HCV genotype 1a, isolate H77) (UniProt P27958)"}, "[12]": {"target": "E1E2 complex (H77) with E1 mutation P228A (HCV genotype 1a, isolate H77) (UniProt P27958)"}, "[13]": {"target": "E1E2 complex (H77) with E1 mutation P341A (HCV genotype 1a, isolate H77) (UniProt P27958)"}, "[14]": {"target": "E1E2 complex (H77) with E1 mutation Q289A (HCV genotype 1a, isolate H77) (UniProt P27958)"}, "[15]": {"target": "E1E2 complex (H77) with E1 mutation R259A (HCV genotype 1a, isolate H77) (UniProt P27958)"}, "[16]": {"target": "E1E2 complex (H77) with E1 mutation R296A (HCV genotype 1a, isolate H77) (UniProt P27958)"}, "[17]": {"target": "E1E2 complex (H77) with E1 mutation R339A (HCV genotype 1a, isolate H77) (UniProt P27958)"}, "[18]": {"target": "E1E2 complex (H77) with E1 mutation S307A (HCV genotype 1a, isolate H77) (UniProt P27958)"}, "[19]": {"target": "E1E2 complex (H77) with E1 mutation S327A (HCV genotype 1a, isolate H77) (UniProt P27958)"}, "[20]": {"target": "E1E2 complex (H77) with E1 mutation T204A (HCV genotype 1a, isolate H77) (UniProt P27958)"}, "[21]": {"target": "E1E2 complex (H77) with E1 mutation T255A (HCV genotype 1a, isolate H77) (UniProt P27958)"}, "[22]": {"target": "E1E2 complex (H77) with E1 mutation T329A (HCV genotype 1a, isolate H77) (UniProt P27958)"}, "[23]": {"target": "E1E2 complex (H77) with E1 mutation Y276A (HCV genotype 1a, isolate H77) (UniProt P27958)"}, "[24]": {"target": "E1E2 complex (H77) with E2 mutation A642G (HCV genotype 1a, isolate H77) (UniProt P27958)"}, "[25]": {"target": "E1E2 complex (H77) with E2 mutation R630A (HCV genotype 1a, isolate H77) (UniProt P27958)"}, "[26]": {"target": "E1E2 complex (H77) with E2 mutation T425A (HCV genotype 1a, isolate H77) (UniProt P27958)"}, "[27]": {"target": "E1E2 complex (H77) with E2 mutation T435A (HCV genotype 1a, isolate H77) (UniProt P27958)"}, "[28]": {"target": "E1E2 complex (H77) with E2 mutation Y443A (HCV genotype 1a, isolate H77) (UniProt P27958)"}, "[29]": {"target": "E1E2 complex (H77) with E2 mutation Y618A (HCV genotype 1a, isolate H77) (UniProt P27958)"}}, "data": [{"substance": "mouse anti-E1 MAb A4 (antibody)", "values": [{"measurement": "Binding relative to wt (%)", "setting": "[1]", "result": 28, "unit": "%"}, {"measurement": "Binding relative to wt (%)", "setting": "[2]", "result": 87, "unit": "%"}, {"measurement": "Binding relative to wt (%)", "setting": "[3]", "result": 106, "unit": "%"}, {"measurement": "Binding relative to wt (%)", "setting": "[4]", "result": 89, "unit": "%"}, {"measurement": "Binding relative to wt (%)", "setting": "[5]", "result": 79, "unit": "%"}, {"measurement": "Binding relative to wt (%)", "setting": "[6]", "result": 132, "unit": "%"}, {"measurement": "Binding relative to wt (%)", "setting": "[7]", "result": 95, "unit": "%"}, {"measurement": "Binding relative to wt (%)", "setting": "[8]", "result": 99, "unit": "%"}, {"measurement": "Binding relative to wt (%)", "setting": "[9]", "result": 71, "unit": "%"}, {"measurement": "Binding relative to wt (%)", "setting": "[10]", "result": 64, "unit": "%"}, {"measurement": "Binding relative to wt (%)", "setting": "[11]", "result": 109, "unit": "%"}, {"measurement": "Binding relative to wt (%)", "setting": "[12]", "result": 171, "unit": "%"}, {"measurement": "Binding relative to wt (%)", "setting": "[13]", "result": 101, "unit": "%"}, {"measurement": "Binding relative to wt (%)", "setting": "[14]", "result": 49, "unit": "%"}, {"measurement": "Binding relative to wt (%)", "setting": "[15]", "result": 97, "unit": "%"}, {"measurement": "Binding relative to wt (%)", "setting": "[16]", "result": 108, "unit": "%"}, {"measurement": "Binding relative to wt (%)", "setting": "[17]", "result": 87, "unit": "%"}, {"measurement": "Binding relative to wt (%)", "setting": "[18]", "result": 157, "unit": "%"}, {"measurement": "Binding relative to wt (%)", "setting": "[19]", "result": 85, "unit": "%"}, {"measurement": "Binding relative to wt (%)", "setting": "[20]", "result": 102, "unit": "%"}, {"measurement": "Binding relative to wt (%)", "setting": "[21]", "result": 106, "unit": "%"}, {"measurement": "Binding relative to wt (%)", "setting": "[22]", "result": 89, "unit": "%"}, {"measurement": "Binding relative to wt (%)", "setting": "[23]", "result": 82, "unit": "%"}, {"measurement": "Binding relative to wt (%)", "setting": "[24]", "result": 137, "unit": "%"}, {"measurement": "Binding relative to wt (%)", "setting": "[25]", "result": 106, "unit": "%"}, {"measurement": "Binding relative to wt (%)", "setting": "[26]", "result": 104, "unit": "%"}, {"measurement": "Binding relative to wt (%)", "setting": "[27]", "result": 117, "unit": "%"}, {"measurement": "Binding relative to wt (%)", "setting": "[28]", "result": 28, "unit": "%"}, {"measurement": "Binding relative to wt (%)", "setting": "[29]", "result": 157, "unit": "%"}]}]}
